{"source": "paper PMC3477590", "about": "(Molecular cell, 2012)", "biological_target": "minimally biotinylated GLMN (wild-type) (human, UniProt Q92990 1-594, minimally biotinylated)", "sequence (Q92990 whole entry, the tested form may be a part)": "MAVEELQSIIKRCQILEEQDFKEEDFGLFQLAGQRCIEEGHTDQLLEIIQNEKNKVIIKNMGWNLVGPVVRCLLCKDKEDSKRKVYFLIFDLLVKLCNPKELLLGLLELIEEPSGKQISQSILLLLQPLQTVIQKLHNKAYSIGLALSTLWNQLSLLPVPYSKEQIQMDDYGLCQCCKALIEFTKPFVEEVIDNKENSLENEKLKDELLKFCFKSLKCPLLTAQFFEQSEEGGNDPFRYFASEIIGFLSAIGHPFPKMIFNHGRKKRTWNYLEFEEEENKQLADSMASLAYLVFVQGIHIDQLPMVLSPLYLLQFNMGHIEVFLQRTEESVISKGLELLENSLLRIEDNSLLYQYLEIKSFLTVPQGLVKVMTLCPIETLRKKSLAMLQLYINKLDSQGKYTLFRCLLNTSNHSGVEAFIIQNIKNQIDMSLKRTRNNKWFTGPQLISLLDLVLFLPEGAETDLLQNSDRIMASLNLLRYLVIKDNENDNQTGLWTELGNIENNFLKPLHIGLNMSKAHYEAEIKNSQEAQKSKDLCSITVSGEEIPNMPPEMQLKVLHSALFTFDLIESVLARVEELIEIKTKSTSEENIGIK", "assay": "SPR", "data": [{"binder": "isolated RBX1 RING domain (domain or fragment) not shown", "values": [{"measurement": "Kd", "result": 38.6, "unit": "nM"}]}]}
